Measurements: patent publication US20220290113

B1: Nme1Cas9-Nme2Cas9PID chimera (Nme1Cas9 with its PID replaced by that of Nme2Cas9) (protein)
chain: MAAFKPNSINYILGLDIGIASVGWAMVEIDEEENPIRLIDLGVRVFERAEVPKTGDSLAMARRLARSVRRLTRRRAHRLLRTRRLLKREGVLQAANFDENGLIKSLPNTPWQLRAAALDRKLTPLEWSAVLLHLIKHRGYLSQRKNEGETADKELGALLKGVAGNAHALQTGDFRTPAELALNKFEKESGHIRNQRSDYSHTFSRKDLQAELILLFEKQKEFGNPHVSGGLKEGIETLLMTQRPALSGDAVQKMLGHCTFEPAEPKAAKNTYTAERFIWLTKLNNLRILEQGSERPLTDTERATLMDEPYRKSKLTYAQARKLLGLEDTAFFKGLRYGKDNAEASTLMEMKAYHAISRALEKEGLKDKKSPLNLSPELQDEIGTAFSLFKTDEDITGRLKDRIQPEILEALLKHISFDKFVQISLKALRRIVPLMEQGKRYDEACAEIYGDHYGKKNTEEKIYLPPIPADEIRNPVVLRALSQARKVINGVVRRYGSPARIHIETAREVGKSFKDRKEIEKRQEENRKDREKAAAKFREYFPNFVGEPKSKDILKLRLYEQQHGKCLYSGKEINLGRLNEKGYVEIDHALPFSRTWDDSFNNKVLVLGSENQNKGNQTPYEYFNGKDNSREWQEFKARVETSRFPRSKKQRILLQKFDEDGFKERNLNDTRYVNRFLCQFVADRMRLTGKGKKRVFASNGQITNLLRGFWGLRKVRAENDRHHALDAVVVACSTVAMQQKITRFVRYKEMNAFDGKTIDKETGEVLHQKTHFPQPWEFFAQEVMIRVFGKPDGKPEFEEADTLEKLRTLLAEKLSSRPEAVHEYVTPLFVSRAPNRKMSGAHKDTLRSAKRFVKHNEKISVKRVWLTEIKLADLENMVNYKNGREIELYEALKARLEAYGGNAKQAFDPKDNPFYKKGGQLVKAVRVEKTQESGVLLNKKNAYTIADNGDMVRVDVFCKVDKKGKNQYFIVPIYAWQVAENILPDIDCKGYRIDDSYTFCFSLHKYDLIAFQKDEKSKVEFAYYINCDSSNGRFYLAWHDKGSKEQQFRISTQNLVLIQKYQVNELGKEIRPCRLKKRPPVR
in vitro DNA cleavage by the Nme1Cas9-Nme2Cas9PID chimera in the presence of Acr (10 uM Cas9-sgRNA + 100 uM Acr) (AcrIIC5Smu): No inhibition was observed by AcrIIC5Smu on this protein chimera

B2: Nme1Cas9 (Cas9 of Neisseria meningitidis strain 8013), recombinant, purified from E. coli (protein)
chain: MAAFKPNSINYILGLDIGIASVGWAMVEIDEEENPIRLIDLGVRVFERAEVPKTGDSLAMARRLARSVRRLTRRRAHRLLRTRRLLKREGVLQAANFDENGLIKSLPNTPWQLRAAALDRKLTPLEWSAVLLHLIKHRGYLSQRKNEGETADKELGALLKGVAGNAHALQTGDFRTPAELALNKFEKESGHIRNQRSDYSHTFSRKDLQAELILLFEKQKEFGNPHVSGGLKEGIETLLMTQRPALSGDAVQKMLGHCTFEPAEPKAAKNTYTAERFIWLTKLNNLRILEQGSERPLTDTERATLMDEPYRKSKLTYAQARKLLGLEDTAFFKGLRYGKDNAEASTLMEMKAYHAISRALEKEGLKDKKSPLNLSPELQDEIGTAFSLFKTDEDITGRLKDRIQPEILEALLKHISFDKFVQISLKALRRIVPLMEQGKRYDEACAEIYGDHYGKKNTEEKIYLPPIPADEIRNPVVLRALSQARKVINGVVRRYGSPARIHIETAREVGKSFKDRKEIEKRQEENRKDREKAAAKFREYFPNFVGEPKSKDILKLRLYEQQHGKCLYSGKEINLGRLNEKGYVEIDHALPFSRTWDDSFNNKVLVLGSENQNKGNQTPYEYFNGKDNSREWQEFKARVETSRFPRSKKQRILLQKFDEDGFKERNLNDTRYVNRFLCQFVADRMRLTGKGKKRVFASNGQITNLLRGFWGLRKVRAENDRHHALDAVVVACSTVAMQQKITRFVRYKEMNAFDGKTIDKETGEVLHQKTHFPQPWEFFAQEVMIRVFGKPDGKPEFEEADTLEKLRTLLAEKLSSRPEAVHEYVTPLFVSRAPNRKMSGQGHMETVKSAKRLDEGVSVLRVPLTQLKLKDLEKMVNREREPKLYEALKARLEAHKDDPAKAFAEPFYKYDKAGNRTQQVKAVRVEQVQKTGVWVRNHNGIADNATMVRVDVFEKGDKYYLVPIYSWQVAKGILPDRAVVQGKDEEDWQLIDDSFNFKFSLHPNDLVEVITKKARMFGYFASCHRGTGNINIRIHDLDHKIGKNGILEGIGVKTALSFQKYQIDELGKEIRPCRLKKRPPVR
in vitro DNA cleavage by Cas9 in the presence of Acr (10:1 Acr:Cas9 molar ratio) (AcrE2): AcrE2 failed to do so | in vitro DNA cleavage by Cas9 in the presence of Acr (10:1 Acr:Cas9 molar ratio) (AcrIIC1Nme): all 5 families inhibited Nme1Cas9 | in vitro DNA cleavage by Cas9 in the presence of Acr (10:1 Acr:Cas9 molar ratio) (AcrIIC2Nme): all 5 families inhibited Nme1Cas9 | in vitro DNA cleavage by Cas9 in the presence of Acr (10:1 Acr:Cas9 molar ratio) (AcrIIC3Nme): all 5 families inhibited Nme1Cas9 | in vitro DNA cleavage by Cas9 in the presence of Acr (10:1 Acr:Cas9 molar ratio) (AcrIIC4Hpa): all 5 families inhibited Nme1Cas9 | in vitro DNA cleavage by Cas9 in the presence of Acr (10:1 Acr:Cas9 molar ratio) (AcrIIC5Smu): all 5 families inhibited Nme1Cas9

B3: Recombinant Nme2Cas9 (Cas9 of Neisseria meningitidis strain Del1444), purified from E. coli (protein)
chain: PKKKRKVNAMAAFKPNPINYILGLDIGIASVGWAMVEIDEEENPIRLIDLGVRVFERAEVPKTGDSLAMARRLARSVRRLTRRRAHRLLRARRLLKREGVLQAADFDENGLIKSLPNTPWQLRAAALDRKLTPLEWSAVLLHLIKHRGYLSQRKNEGETADKELGALLKGVANNAHALQTGDFRTPAELALNKFEKESGHIRNQRGDYSHTFSRKDLQAELILLFEKQKEFGNPHVSGGLKEGIETLLMTQRPALSGDAVQKMLGHCTFEPAEPKAAKNTYTAERFIWLTKLNNLRILEQGSERPLTDTERATLMDEPYRKSKLTYAQARKLLGLEDTAFFKGLRYGKDNAEASTLMEMKAYHAISRALEKEGLKDKKSPLNLSSELQDEIGTAFSLFKTDEDITGRLKDRVQPEILEALLKHISFDKFVQISLKALRRIVPLMEQGKRYDEACAEIYGDHYGKKNTEEKIYLPPIPADEIRNPVVLRALSQARKVINGVVRRYGSPARIHIETAREVGKSFKDRKEIEKRQEENRKDREKAAAKFREYFPNFVGEPKSKDILKLRLYEQQHGKCLYSGKEINLVRLNEKGYVEIDHALPFSRTWDDSFNNKVLVLGSENQNKGNQTPYEYFNGKDNSREWQEFKARVETSRFPRSKKQRILLQKFDEDGFKECNLNDTRYVNRFLCQFVADHILLTGKGKRRVFASNGQITNLLRGFWGLRKVRAENDRHHALDAVVVACSTVAMQQKITRFVRYKEMNAFDGKTIDKETGKVLHQKTHFPQPWEFFAQEVMIRVFGKPDGKPEFEEADTPEKLRTLLAEKLSSRPEAVHEYVTPLFVSRAPNRKMSGAHKDTLRSAKRFVKHNEKISVKRVWLTEIKLADLENMVNYKNGREIELYEALKARLEAYGGNAKQAFDPKDNPFYKKGGQLVKAVRVEKTQESGVLLNKKNAYTIADNGDMVRVDVFCKVDKKGKNQYFIVPIYAWQVAENILPDIDCKGYRIDDSYTFCFSLHKYDLIAFQKDEKSKVEFAYYINCDSSNGRFYLAWHDKGSKEQQFRISTQNLVLIQKYQVNELGKEIRPCRLKKRPPVRGGGGSGGGGSGGGGSPAAKKKKLDGGGSKRPAATKKAGQAKKKK
in vitro DNA cleavage by Cas9 in the presence of Acr (10:1 Acr:Cas9 molar ratio) (AcrIIC1Nme): completely inhibited Nme2Cas9 | in vitro DNA cleavage by Cas9 in the presence of Acr (10:1 Acr:Cas9 molar ratio) (AcrIIC2Nme): completely inhibited Nme2Cas9 | in vitro DNA cleavage by Cas9 in the presence of Acr (10:1 Acr:Cas9 molar ratio) (AcrIIC3Nme): completely inhibited Nme2Cas9 | in vitro DNA cleavage by Cas9 in the presence of Acr (10:1 Acr:Cas9 molar ratio) (AcrIIC4Hpa): completely inhibited Nme2Cas9 | in vitro DNA cleavage by Cas9 in the presence of Acr (10:1 Acr:Cas9 molar ratio) (AcrIIC5Smu): did not inhibit Nme2Cas9 in vitro even at a 10-fold molar excess
